Measurements reported in patent US20130011412A1 (Genentech, published 2013).
Substitutions are numbered along the chain they refer to. In names and notes the source's numbering stands.

B1: chimeric anti-LTα antibody 3F12 (original chimera) (antibody, human IgG1, kappa, V domains shown)
VH: QGQLQQSGAELMKPGASVKISCKATGYTFSSYWIEWVKQRPGHGLEWIGEISPGSGSTNYNEEFKGKATFTADKSSNTAYIQLSSLSTSEDSAVYYCADGYHGYWGQGTTLTVSS
VL: DIVMSQSPSSLAVSVGEKVTMSCKSSQSLLYSTNQKNFLAWYQQKPGQSPKLLIYWASTRDSGVPDRFTGSGSGTDFTLTISSVKAEDLAVYYCQQYYSYPRTFGGGTKLEIKR
notes: Murine variable domains on human C kappa and IgG1; also called 3F12 chimera; chimeric 3F12
B2: humanized 3F12.v2 (antibody, IgG1, name in Kabat numbering, V domains shown)
VH: EVQLVESGGGLVQPGGSLRLSCAASGYTFSSYWIEWVRQAPGKGLEWVGEISPGSGSTNYNEEFKGRATFSADNSKNTLYLQMNSLRAEDTAVYYCADGYHGYWGQGTLVTVSS
VL: DIQMTQSPSSLSASVGDRVTITCKSSQSLLYSTNQKNFLAWYQQKPGKAPKLLIYWASTRDSGVPSRFSGSGSGTDFTLTISSLQPEDFATYYCQQYYSYPRTFGQGTKVEIKR
notes: Built back from 3F12.v5; human kappa / IgG1 constant domains; also called I69F
B3: humanized 3F12.v4 (antibody, IgG1, name in Kabat numbering, V domains shown)
VH: B2 VH with F70I, L79A
VL: B2 VL
notes: Built back from 3F12.v5; human kappa / IgG1 constant domains; also called L78A
B4: chimeric anti-LTα antibody 2C8 (antibody, human IgG1, kappa, V domains shown)
VH: EVQLQQSGPELVKPGASVKLSCKASGYTFTSYVIHWVKQKPGQGLEWIGYNNPYNDGTNYNEKFKGKATLTSDKSSSTAYMELSSLTSEDSAVYYCSRPTMLPWFAYWGQGTTLTVSA
VL: DIVMTQSHKFMSTSVGDRVSITCKASQAVSSAVAWYQQKPGQSPKLQIYSASHRYTGVPDRFTGSGSGTDFTFTISSVQAEDLAVYYCQQHYSTPWTFGGGTKVEIKR
notes: Murine variable domains on human kappa and human IgG1; also called 2C8 chimera; 2C8.chimera
B5: humanized 2C8.v2 (antibody, IgG1, V domains shown)
VH: EVQLVESGGGLVQPGGSLRLSCAASGYTFTSYVIHWVRQAPGKGLEWVGYNNPYNDGTNYNEKFKGRATISSDKSKNTAYLQMNSLRAEDTAVYYCSRPTMLPWFAYWGQGTLVTVSS
VL: DIQMTQSPSSLSASVGDRVTITCRASQAVSSAVAWYQQKPGKAPKLQIYSASHRYTGVPSRFSGSGSGTDFTLTISSLQPEDFATYYCQQHYSTPWTFGQGTKVEIKR
notes: also called Version 2
B6: humanized 2C8.v12 (antibody, V domains shown)
VH: B5 VH with A68F
VL: B5 VL with Q47L
notes: Human kappa / IgG1; also called Version 12; copies: 2 + 2
B7: humanized 2C8.v7 (antibody, V domains shown)
VH: B5 VH
VL: B5 VL with Q47L
notes: Human kappa / IgG1; copies: 2 + 2
B8: phage-displayed 2C8.v2 Fab, wild-type phagemid clone (Fab, V domains shown)
VH: B5 VH
VL: B5 VL
notes: also called wild-type 2C8.v2
B9: phage-displayed 2C8 Fab clone G2 (Fab, V domains shown)
VH: B5 VH
VL: B5 VL with H91Y
B10: phage-displayed 2C8 Fab clone H6 (Fab, V domains shown)
VH: B5 VH
VL: B5 VL with Q90E, H91V
notes: also called 2C8 clone H6
B11: phage-displayed 2C8 Fab clone C12 (Fab, V domains shown)
VH: B5 VH
VL: B5 VL with Q90E
B12: phage-displayed 2C8 Fab clone G12 (Fab, V domains shown)
VH: B5 VH
VL: B5 VL with Q90K, H91T, Y92F
B13: phage-displayed 2C8 Fab clone G7 (Fab, V domains shown)
VH: B5 VH
VL: B5 VL with Q90E, H91N
notes: also called 2C8 clone G7
B14: phage-displayed 2C8 Fab clone H9 (Fab, V domains shown)
VH: B5 VH
VL: B5 VL with S93Y
B15: phage-displayed 2C8 Fab clone D8 (Fab, V domains shown)
VH: B5 VH
VL: B5 VL with H91F, T94V
B16: 3F12 version 30 (3F12.v5 with E61A, CDR-H2) (antibody, IgG1, V domains shown)
VH: B2 VH with E62A, L79A
VL: DIQMTQSPSSLSASVGDRVTITCKSSQSLLYSTNQKNFLAWYQQKPGKAPKLLIYWASTRDSGVPSRFSGSGSGTDFTLTISSLQPEDFATYYCQQYYSYPRTFGQGTKVEIK
notes: Alanine-scan variant of 3F12.v5; human kappa / IgG1
B17: 3F12 version 27 (3F12.v5 with N58A, CDR-H2) (antibody, IgG1, V domains shown)
VH: B2 VH with N59A, L79A
VL: B16 VL
notes: as for B16
B18: 3F12 version 29 (3F12.v5 with N60A, CDR-H2) (antibody, IgG1, V domains shown)
VH: B2 VH with N61A, L79A
VL: B16 VL
notes: as for B16
B19: 3F12 version 31 (3F12.v5 with E62A, CDR-H2) (antibody, IgG1, V domains shown)
VH: B2 VH with E63A, L79A
VL: B16 VL
notes: as for B16
B20: 3F12 version 28 (3F12.v5 with Y59A, CDR-H2) (antibody, IgG1, V domains shown)
VH: B2 VH with Y60A, L79A
VL: B16 VL
notes: as for B16
B21: 3F12 version 26 (3F12.v5 with S56A, CDR-H2) (antibody, IgG1, V domains shown)
VH: B2 VH with S57A, L79A
VL: B16 VL
notes: as for B16

What follows are binders tested against T1, recombinant human lymphotoxin-α homotrimer (human LTα3) (human, UniProt P01374 35-205) (assay: plate ELISA on coated LTα).
T1 construct: Coated on plates in the ELISAs; also called rhLTα; lymphotoxin-α3 trimer
T1 sequence (looked up): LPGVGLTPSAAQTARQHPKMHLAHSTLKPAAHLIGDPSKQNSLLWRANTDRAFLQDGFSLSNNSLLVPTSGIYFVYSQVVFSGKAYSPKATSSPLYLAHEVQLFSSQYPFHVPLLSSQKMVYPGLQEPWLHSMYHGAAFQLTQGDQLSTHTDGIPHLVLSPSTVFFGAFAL

Row | Binder | Relative binding
1 | B1 | 1 relative to the original chimera
2 | B2 | > 1000 fold down from the chimera
3 | B3 | > 500 fold down from the chimera

What follows are binders tested against T1, recombinant human lymphotoxin-α … (assay: BIACORE (rhLTα)).

Row | Binder | Kd [nM] | kon [M⁻¹ s⁻¹]
4 | B4 | 0.6 | 
5 | B5 | 0.2 | 600000
6 | B6 | 0.07 | 
7 | B7 | 0.4 | 

These binders were tested against T1, recombinant human lymphotoxin-α … (assay: phage competitive ELISA: rhLTα in solution competes with plate-coated LTα).
Procedure: For the first round, phage were captured for 2 hours against 2 μg/ml plate-coated LTα at ambient temperature. The second and third rounds of selection were performed at ambient temperature by capturing phage for 30 minutes with 2 nM biotinylated LTα in solution phase, followed by capture on neutravidin-coated plates. The highest affinity clone was identified using a competitive ELISA. Constant concentrations of phage clones (normalized by solid-phase LTα binding OD) were incubated with increasing concentrations of LTα (0-50 nM) in solution before capture on a plate coated with 2 μg/ml LTα.

Row | Binder | IC50 [nM]
8 | B8 | 3.14
9 | B9 | 4.51
10 | B10 | 1.1
11 | B11 | 3.41
12 | B12 | 5.34
13 | B13 | 0.57
14 | B14 | 3.8
15 | B15 | 137

Each binder was assayed against T1, recombinant human lymphotoxin-α … (assay: blocking ELISA: biotinylated human LTα3 preincubated with the antibody, then captured on coated TNFRII.huIgG1 (m10)).
Procedure: The unabsorbed solution was aspirated from the wells. Biotinylated LTα3 (murine or human) was captured and detected with streptavidin-horse radish peroxidase (HRP). […] Each well was washed with PBS/0.05% TWEEN™ 20 surfactant, and bound HRP was measured with a solution of tetramethylbenzidine (TMB)/H₂O₂. After 15 minutes, the reaction was quenched by the addition of 100 μl of 1M phosphoric acid to each well. The absorbance at 450 nm was read with a reference wavelength of 650 nm.

Row | Binder | IC50 (read off the curve) [nM]
16 | B4 | ~5
17 | B1 | ~20

What follows are binders tested against T1, recombinant human lymphotoxin-α … (assay: plate-based ELISA against LTα).

Row | Binder | relative binding (EC50 of the variant / EC50 of version 5) [ratio]
18 | B16 | 1.78
19 | B17 | 1.7
20 | B18 | 2.31
21 | B19 | 1.93
22 | B20 | 2.73
23 | B21 | 1.07

Each binder was assayed against T1, recombinant human lymphotoxin-α … (assay: direct ELISA on plate-coated human LTα3 (1 µg/ml)).
Procedure: Microtiter wells were coated with 1 μg/ml human LTα3 in 50 mM carbonate buffer solution (100 μl/well) overnight. The unabsorbed solution was decanted from the wells. Wells were blocked with 150 μL PBS containing 5 mg/ml bovine serum albumin (PBS-BSA) for 1-2 hour. […] 100 μL of biotin-labeled rat anti-mouse IgG in PBS-BSA buffer was then added to each well and incubated for one hour. The plate was then washed with PBS/0.05% TWEEN™-20 surfactant, and streptavidin-horseradish peroxidase (SA-HRP) was added for 30 minutes to each well. Each well was washed with PBS/0.05% TWEEN™-20 surfactant, and bound HRP was measured with a solution of tetramethylbenzidine (TMB)/H₂O₂. After 15 minutes, the reaction was quenched by the addition of 100 μl of 1M phosphoric acid. The absorbance at 450 nm was read with a reference wavelength of 650 nm.

Row | Binder | EC50 (read off the curve) [nM]
24 | B4 | ~0.1
25 | B1 | ~0.3

What follows are binders tested against T1, recombinant human lymphotoxin-α … (assay: plate ELISA on coated human LTα).

Row | Binder | ELISA IC50 ratio [ratio]
26 | B4 | 1
27 | B5 | 1.7
28 | B6 | 1
29 | B7 | 1.2
